{"source": "paper PMC4815982", "biological_target": "AROS (UniProt Q86WX3)", "assay": "Flag-SIRT1 IP, HA-AROS immunoblot", "details": "reference: wild type, Adriamycin-treated; sites S682"}
{"substance": "SIRT1 (from UniProt Q96EB6) S682A, Adriamycin-treated", "values": [{"measurement": "binding against the reference", "value": "stronger"}]}
